Reference: patent publication US20200377590A1 (Hoffmann-La Roche, published 2020)
Where a chain is given by its changes, count along the chain named.

T1: CD81 (UniProt P60033 1-236, limits assumed)
T1 construct: whole, on cells; also called CD81 receptor
T1 sequence (looked up): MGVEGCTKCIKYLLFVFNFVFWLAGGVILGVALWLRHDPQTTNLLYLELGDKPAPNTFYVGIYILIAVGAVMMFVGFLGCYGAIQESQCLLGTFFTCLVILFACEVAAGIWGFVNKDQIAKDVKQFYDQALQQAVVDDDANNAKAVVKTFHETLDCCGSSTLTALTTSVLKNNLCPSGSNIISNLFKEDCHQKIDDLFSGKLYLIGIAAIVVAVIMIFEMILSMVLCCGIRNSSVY

B1: CD81K04 HC K04_JA_GG-17-hVH_1_3 / LC GG-04-hVK_4_1 (antibody, V domains shown)
VH: QVQLVQSGAEVKKPGASVKVSCKASGYTFSSSWMNWVRQAPGQRLEWMGRIYSGDGDTIYSQKFQGRVTITADTSASTAYMELSSLRSEDTAVYYCAREGKTGDLLLRSWGQGTLVTVSS
VL: DIVMTQSPDSLAVSLGERATINCKSSKSVSTSIYSYLAWYQQKPGQPPKLLIYYASTRESGVPDRFSGSGSGTDFTLTISSLQAEDVAVYYCQHSREFPYTFGQGTKLEIK
notes: human constant region
B2: CD81K04 HC GG-02-hVH_1_69 / LC CD81K04 (antibody, V domains shown)
VH: B1 VH with A16S, R44G, T58A, S61N, T74E, A76T
VL: DIVLTQSPASLSVSLGQRATISCRASKSVSTSIYSYMHWYQQKPGQPPKLLIKYASYLESGVPARFSGSGSGTDFTLNIHPVEEEDAATYYCEHSREFPFTFGTGTKLEIK
notes: human constant region
B3: CD81K04 HC GG-02-hVH_1_69 / LC GG-05-hVK_3_11 (antibody, V domains shown)
VH: B1 VH with A16S, R44G, T58A, S61N, T74E, A76T
VL: EIVLTQSPATLSLSPGERATLSCRASKSVSTSIYSYLHWYQQKPGQAPRLLIYYASNRETGIPARFSGSGSGTDFTLTISSLEPEDFAVYYCQHSREFPFTFGQGTKLEIK
notes: human constant region
B4: CD81K04 HC GG-02-hVH_1_69 / LC JA_GG-07-hVK_7_3 (antibody, V domains shown)
VH: B1 VH with A16S, R44G, T58A, S61N, T74E, A76T
VL: DIVLTQSPASLAVSPGQRATITCRASKSVSTSIYSYMHWYQQKPGQPPKLLIKYASNKDTGVPARFSGSGSGTDFTLTINPVEANDAANYYCLHSREFPYTFGQGTKLEIK
notes: human constant region
B5: CD81K04 HC GG-02-hVH_1_69 / LC GG-06-hVK_1_39 (antibody, V domains shown)
VH: B1 VH with A16S, R44G, T58A, S61N, T74E, A76T
VL: DIQMTQSPSSLSASVGDRVTITCRASKSVSTSIYSYLNWYQQKPGKAPKLLIYYASYLQSGVPSRFSGSGSGTDFTLTISSLQPEDFATYYCQHSREFPYTFGQGTKLEIK
notes: human constant region
B6: CD81K04 HC JA_GG-14-hVH_1_3 / LC JA_GG-07-hVK_7_3 (antibody, V domains shown)
VH: B1 VH with R44G, T58A, S61N, Q62G, Q65K, V68A
VL: B4 VL
notes: human constant region
B7: CD81K04 HC K04_JA_GG-17-hVH_1_3 / LC JA_GG-07-hVK_7_3 (antibody, V domains shown)
VH: B1 VH
VL: B4 VL
notes: human constant region
B8: CD81K04 HC GG-05-hVH_1_18 / LC JA_GG-07-hVK_7_3 (antibody, V domains shown)
VH: B1 VH with R44G, T58A, S61A, F64L, I70M, A72T, A76T, S84R, E89D
VL: B4 VL
notes: human constant region
B9: CD81K04 HC JA_GG-15-hVH_1_3 / LC GG-06-hVK_1_39 (antibody, V domains shown)
VH: B1 VH with T58A, S61N, Q62G, Q65K
VL: B5 VL
notes: human constant region
B10: CD81K04 HC JA_GG-16-hVH_1_3 / LC GG-05-hVK_3_11 (antibody, V domains shown)
VH: B1 VH with R44G, T58A, S61N, Q62G, Q65K
VL: B3 VL
notes: human constant region
B11: CD81K04 HC GG-03-hVH_1_69 / LC CD81K04 (antibody, V domains shown)
VH: B1 VH with A16S, R44G, T58A, S61A, T74E, A76T
VL: B2 VL
notes: human constant region
B12: CD81K04 HC JA_GG-16-hVH_1_3 / LC GG-06-hVK_1_39 (antibody, V domains shown)
VH: B1 VH with R44G, T58A, S61N, Q62G, Q65K
VL: B5 VL
notes: human constant region
B13: CD81K04 HC JA_GG-14-hVH_1_69 / LC GG-06-hVK_1_39 (antibody, V domains shown)
VH: B1 VH with A16S, R44G, T58A, S61N, Q62G, Q65K, R67K, V68A, T74E, A76T
VL: B5 VL
notes: human constant region
B14: CD81K04 HC K04_JA-13-hVH_1_3 / LC JA_GG-07-hVK_7_3 (antibody, V domains shown)
VH: B1 VH with T58A, S61N, Q62G, Q65K, A72R
VL: B4 VL
notes: human constant region
B15: CD81K04 HC JA_GG-16-hVH_1_3 / LC JA_GG-07-hVK_7_3 (antibody, V domains shown)
VH: B1 VH with R44G, T58A, S61N, Q62G, Q65K
VL: B4 VL
notes: human constant region
B16: CD81K04 HC K04_JA_GG-17-hVH_1_3 / LC GG-06-hVK_1_39 (antibody, V domains shown)
VH: B1 VH
VL: B5 VL
notes: human constant region
B17: CD81K04 HC GG-04-hVH_1_69 / LC JA_GG-07-hVK_7_3 (antibody, V domains shown)
VH: B1 VH with A16S, R44G, T58A, S61N, V68A, T74E, A76T
VL: B4 VL
notes: human constant region
B18: CD81K04 HC JA_GG-15-hVH_1_3 / LC GG-05-hVK_3_11 (antibody, V domains shown)
VH: B1 VH with T58A, S61N, Q62G, Q65K
VL: B3 VL
notes: human constant region
B19: CD81K04 HC GG-06-hVH_1_69 / LC CD81K04 (antibody, V domains shown)
VH: B1 VH with A16S, N35C, R44G, R50C, T58A, S61N, T74E, A76T
VL: B2 VL
notes: human constant region
B20: CD81K04 HC JA_GG-13-hVH_1_69 / LC GG-05-hVK_3_11 (antibody, V domains shown)
VH: B1 VH with A16S, Y27G, R44G, T58A, S61A, T74E, A76T
VL: B3 VL
notes: human constant region
B21: CD81K04 HC JA_GG-14-hVH_1_3 / LC CD81K04 (antibody, V domains shown)
VH: B1 VH with R44G, T58A, S61N, Q62G, Q65K, V68A
VL: B2 VL
notes: human constant region
B22: CD81K04 HC JA_GG-14-hVH_1_3 / LC GG-06-hVK_1_39 (antibody, V domains shown)
VH: B1 VH with R44G, T58A, S61N, Q62G, Q65K, V68A
VL: B5 VL
notes: human constant region
B23: CD81K04 HC JA_GG-15-hVH_1_3 / LC JA_GG-07-hVK_7_3 (antibody, V domains shown)
VH: B1 VH with T58A, S61N, Q62G, Q65K
VL: B4 VL
notes: human constant region
B24: CD81K04 HC GG-05-hVH_1_18 / LC GG-06-hVK_1_39 (antibody, V domains shown)
VH: B1 VH with R44G, T58A, S61A, F64L, I70M, A72T, A76T, S84R, E89D
VL: B5 VL
notes: human constant region
B25: CD81K04 HC K04_JA-13-hVH_1_3 / LC GG-05-hVK_3_11 (antibody, V domains shown)
VH: B1 VH with T58A, S61N, Q62G, Q65K, A72R
VL: B3 VL
notes: human constant region
B26: CD81K04 HC GG-04-hVH_1_69 / LC CD81K04 (antibody, V domains shown)
VH: B1 VH with A16S, R44G, T58A, S61N, V68A, T74E, A76T
VL: B2 VL
notes: human constant region
B27: CD81K04 HC K04_JA_GG-17-hVH_1_3 / LC JA_GG-09-hVK_4_1 (antibody, V domains shown)
VH: B1 VH
VL: B1 VL with L37M, A38H, Y53K, Q93E, Y100F
notes: human constant region
B28: CD81K04 HC GG-03-hVH_1_69 / LC GG-05-hVK_3_11 (antibody, V domains shown)
VH: B1 VH with A16S, R44G, T58A, S61A, T74E, A76T
VL: B3 VL
notes: human constant region
B29: CD81K04 HC K04_JA-13-hVH_1_3 / LC GG-06-hVK_1_39 (antibody, V domains shown)
VH: B1 VH with T58A, S61N, Q62G, Q65K, A72R
VL: B5 VL
notes: human constant region
B30: CD81K04 HC JA_GG-14-hVH_1_69 / LC CD81K04 (antibody, V domains shown)
VH: B1 VH with A16S, R44G, T58A, S61N, Q62G, Q65K, R67K, V68A, T74E, A76T
VL: B2 VL
notes: human constant region
B31: CD81K04 HC JA_GG-14-hVH_1_69-GA / LC CD81K04 (antibody, V domains shown)
VH: B1 VH with A16S, R44G, T58A, S61N, Q62G, Q65K, R67K, V68A, T74E, A76T
VL: B2 VL
notes: human constant region
B32: CD81K04 HC GG-03-hVH_1_69 / LC JA_GG-07-hVK_7_3 (antibody, V domains shown)
VH: B1 VH with A16S, R44G, T58A, S61A, T74E, A76T
VL: B4 VL
notes: human constant region
B33: CD81K04 HC JA_GG-14-hVH_1_3 / LC GG-05-hVK_3_11 (antibody, V domains shown)
VH: B1 VH with R44G, T58A, S61N, Q62G, Q65K, V68A
VL: B3 VL
notes: human constant region
B34: CD81K04 HC K04_JA_GG-17-hVH_1_3 / LC JA_GG-10-hVK_4_1 (antibody, V domains shown)
VH: B1 VH
VL: B1 VL with K24R, S25A, L37M, A38H, Y53K, T57Y, R58L, Q93E, Y100F
notes: human constant region
B35: CD81K04 HC JA_GG-14-hVH_1_69-GA / LC GG-06-hVK_1_39 (antibody, V domains shown)
VH: B1 VH with A16S, R44G, T58A, S61N, Q62G, Q65K, R67K, V68A, T74E, A76T
VL: B5 VL
notes: human constant region
B36: CD81K04 HC JA_GG-13-hVH_1_69 / LC JA_GG-07-hVK_7_3 (antibody, V domains shown)
VH: B1 VH with A16S, Y27G, R44G, T58A, S61A, T74E, A76T
VL: B4 VL
notes: human constant region
B37: CD81K04 HC K04_JA_GG-17-hVH_1_3 / LC JA_GG-08-hVK_4_1 (antibody, V domains shown)
VH: B1 VH
VL: B1 VL with L37M, A38H, Y53K, T57Y, R58L, Q93E, Y100F
notes: human constant region
B38: CD81K04 HC JA_GG-13-hVH_1_69 / LC GG-06-hVK_1_39 (antibody, V domains shown)
VH: B1 VH with A16S, Y27G, R44G, T58A, S61A, T74E, A76T
VL: B5 VL
notes: human constant region
B39: CD81K04 HC GG-04-hVH_1_69 / LC GG-06-hVK_1_39 (antibody, V domains shown)
VH: B1 VH with A16S, R44G, T58A, S61N, V68A, T74E, A76T
VL: B5 VL
notes: human constant region
B40: CD81K04 HC JA_GG-13-hVH_1_69 / LC CD81K04 (antibody, V domains shown)
VH: B1 VH with A16S, Y27G, R44G, T58A, S61A, T74E, A76T
VL: B2 VL
notes: human constant region
B41: CD81K04 HC JA_GG-14-hVH_1_69-GA / LC GG-05-hVK_3_11 (antibody, V domains shown)
VH: B1 VH with A16S, R44G, T58A, S61N, Q62G, Q65K, R67K, V68A, T74E, A76T
VL: B3 VL
notes: human constant region
B42: CD81K04 HC JA_GG-14-hVH_1_69 / LC GG-05-hVK_3_11 (antibody, V domains shown)
VH: B1 VH with A16S, R44G, T58A, S61N, Q62G, Q65K, R67K, V68A, T74E, A76T
VL: B3 VL
notes: human constant region
B43: CD81K04 HC GG-03-hVH_1_69 / LC GG-06-hVK_1_39 (antibody, V domains shown)
VH: B1 VH with A16S, R44G, T58A, S61A, T74E, A76T
VL: B5 VL
notes: human constant region
B44: CD81K04 HC GG-04-hVH_1_69 / LC GG-05-hVK_3_11 (antibody, V domains shown)
VH: B1 VH with A16S, R44G, T58A, S61N, V68A, T74E, A76T
VL: B3 VL
notes: human constant region

Molecular target: T1, CD81
Experiment: cell ELISA;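 further: antibody binding to HuH7 cells expressing CD81 versus a CD81-negative HuH7 control line, bound antibody detected by secondary reagent, absorbance at 450 nm with 620 nm reference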

ELISA data | Binder
0.189 | B1
0.918 | B2
0.229 | B3
0.13 | B4
0.08 | B5
0.154 | B6
0.219 | B7
0.14 | B8
0.079 | B9
0.631 | B10
0.843 | B11
0.08 | B12
0.091 | B13
0.255 | B14
0.161 | B15
0.123 | B16
0.12 | B17
0.699 | B18
0.342 | B19
0.228 | B20
0.998 | B21
0.091 | B22

ELISA data | Binder
0.262 | B23
0.149 | B24
0.56 | B25
0.859 | B26
0.911 | B27
0.204 | B28
0.064 | B29
0.996 | B30
0.877 | B31
0.091 | B32
0.696 | B33
0.855 | B34
0.066 | B35
0.087 | B36
0.941 | B37
0.119 | B38
0.067 | B39
0.564 | B40
0.376 | B41
0.403 | B42
0.064 | B43
0.352 | B44
